Consider 1 substance from patent CN105330739A.

The target of this assay is huVEGF 165 (human). Description: indirect ELISA, huVEGF coated at 0.5 ug/ml, four-parameter fit. (In general: An ELISA detects its analyte on a solid surface through an enzyme-linked reagent.)
Sequence of huVEGF 165 (human) (chain, as listed by the source, form in doubt): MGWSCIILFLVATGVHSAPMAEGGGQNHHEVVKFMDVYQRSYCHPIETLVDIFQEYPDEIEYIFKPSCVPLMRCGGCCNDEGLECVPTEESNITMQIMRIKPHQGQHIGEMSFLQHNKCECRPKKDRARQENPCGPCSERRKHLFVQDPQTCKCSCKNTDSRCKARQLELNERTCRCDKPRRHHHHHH

商品化贝伐单抗(avastin) (antibody) had an EC50 of 0.19 nM. In other words, the sub-nanomolar range.

Usually EC50 stands for the concentration at which the effect is half-maximal. Low values mean higher potency in that assay, high ones lower potency in that assay.
